From publication PMC2173041

Biological target: Notch receptor (Drosophila) (UniProt P07207)
Assay: competitive cell aggregation assay

UniProt P07207, sequence (P07207 53-2703): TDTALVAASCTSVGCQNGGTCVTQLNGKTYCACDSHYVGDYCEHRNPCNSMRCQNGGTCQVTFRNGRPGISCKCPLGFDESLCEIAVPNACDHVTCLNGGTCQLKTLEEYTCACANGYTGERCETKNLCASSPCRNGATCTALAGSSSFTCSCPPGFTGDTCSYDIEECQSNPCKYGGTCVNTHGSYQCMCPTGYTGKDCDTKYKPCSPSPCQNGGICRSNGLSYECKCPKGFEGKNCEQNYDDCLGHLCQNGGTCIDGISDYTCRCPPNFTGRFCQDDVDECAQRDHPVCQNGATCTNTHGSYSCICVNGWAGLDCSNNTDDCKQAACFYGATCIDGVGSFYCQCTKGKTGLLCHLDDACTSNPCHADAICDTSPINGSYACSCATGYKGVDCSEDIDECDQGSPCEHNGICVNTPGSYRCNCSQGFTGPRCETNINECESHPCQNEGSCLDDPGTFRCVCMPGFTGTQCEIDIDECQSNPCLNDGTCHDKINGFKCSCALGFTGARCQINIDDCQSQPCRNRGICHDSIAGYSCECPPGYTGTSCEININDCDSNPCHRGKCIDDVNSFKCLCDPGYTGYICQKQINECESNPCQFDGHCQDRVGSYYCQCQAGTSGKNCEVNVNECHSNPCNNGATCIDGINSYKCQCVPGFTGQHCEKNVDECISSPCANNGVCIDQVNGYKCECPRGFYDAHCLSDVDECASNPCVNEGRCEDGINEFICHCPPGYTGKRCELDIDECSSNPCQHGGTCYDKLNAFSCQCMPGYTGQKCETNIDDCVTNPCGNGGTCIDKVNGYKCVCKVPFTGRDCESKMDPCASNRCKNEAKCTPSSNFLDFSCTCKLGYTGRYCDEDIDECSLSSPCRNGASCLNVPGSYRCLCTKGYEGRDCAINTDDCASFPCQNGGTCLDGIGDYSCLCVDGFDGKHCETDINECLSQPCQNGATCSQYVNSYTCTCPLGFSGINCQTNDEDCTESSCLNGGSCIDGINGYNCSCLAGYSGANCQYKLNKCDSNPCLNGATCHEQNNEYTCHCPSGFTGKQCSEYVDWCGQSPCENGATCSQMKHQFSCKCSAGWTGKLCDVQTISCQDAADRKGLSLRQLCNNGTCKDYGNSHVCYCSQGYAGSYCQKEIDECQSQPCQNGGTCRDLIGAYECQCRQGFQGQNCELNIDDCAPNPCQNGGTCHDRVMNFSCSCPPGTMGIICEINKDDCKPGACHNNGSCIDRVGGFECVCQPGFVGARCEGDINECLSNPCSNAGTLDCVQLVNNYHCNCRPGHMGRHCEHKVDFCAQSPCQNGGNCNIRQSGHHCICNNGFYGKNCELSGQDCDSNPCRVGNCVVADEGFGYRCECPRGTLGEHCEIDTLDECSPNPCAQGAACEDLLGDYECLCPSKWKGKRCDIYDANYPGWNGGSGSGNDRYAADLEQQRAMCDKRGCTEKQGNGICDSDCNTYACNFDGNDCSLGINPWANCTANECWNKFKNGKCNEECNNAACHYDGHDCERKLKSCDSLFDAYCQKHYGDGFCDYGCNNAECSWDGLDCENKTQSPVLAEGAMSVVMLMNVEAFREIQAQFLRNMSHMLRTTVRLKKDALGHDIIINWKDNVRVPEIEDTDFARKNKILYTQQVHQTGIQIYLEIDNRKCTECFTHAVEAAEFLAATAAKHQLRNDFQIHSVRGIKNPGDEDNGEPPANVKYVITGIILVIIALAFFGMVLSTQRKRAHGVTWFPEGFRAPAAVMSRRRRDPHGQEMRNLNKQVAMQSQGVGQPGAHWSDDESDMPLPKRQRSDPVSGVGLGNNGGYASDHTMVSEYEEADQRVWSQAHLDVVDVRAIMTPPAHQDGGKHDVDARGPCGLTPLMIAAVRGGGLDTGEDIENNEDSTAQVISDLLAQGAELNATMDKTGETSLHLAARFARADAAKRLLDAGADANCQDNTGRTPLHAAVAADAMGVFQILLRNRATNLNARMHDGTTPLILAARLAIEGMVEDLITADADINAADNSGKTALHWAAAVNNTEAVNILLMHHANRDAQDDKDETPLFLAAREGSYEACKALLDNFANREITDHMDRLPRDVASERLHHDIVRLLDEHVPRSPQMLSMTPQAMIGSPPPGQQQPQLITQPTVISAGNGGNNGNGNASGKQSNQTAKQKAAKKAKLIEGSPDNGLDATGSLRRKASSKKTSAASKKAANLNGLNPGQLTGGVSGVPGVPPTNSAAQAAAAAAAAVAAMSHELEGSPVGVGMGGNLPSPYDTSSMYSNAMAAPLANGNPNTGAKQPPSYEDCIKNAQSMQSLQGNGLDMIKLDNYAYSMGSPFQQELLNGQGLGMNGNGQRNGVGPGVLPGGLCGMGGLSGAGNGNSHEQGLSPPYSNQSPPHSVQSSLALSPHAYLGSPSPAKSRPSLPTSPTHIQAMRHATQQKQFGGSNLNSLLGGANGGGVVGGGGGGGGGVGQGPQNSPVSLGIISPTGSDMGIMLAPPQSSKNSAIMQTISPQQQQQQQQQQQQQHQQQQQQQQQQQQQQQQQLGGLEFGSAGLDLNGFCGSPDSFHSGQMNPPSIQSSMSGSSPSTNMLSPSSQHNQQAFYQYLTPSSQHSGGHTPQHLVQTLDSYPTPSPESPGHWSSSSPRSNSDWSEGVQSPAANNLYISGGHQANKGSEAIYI

percent inhibition of aggregation at >0.5 μM DlEC: < 20%
Substance: DlEC, extracellular fragment of Delta released by cleavage (from UniProt P10041 19-581) (domain or fragment)
